Laboratory results published in patent US20240254184A1 (SALUBRIS BIOTHERAPEUTICS, published 2024).

Biological target: T1, recombinant mouse CTLA-4 protein (mouse, UniProt P09793 36-162, limits assumed)
T1 construct: also called CTLA-4 protein from mice
Experiment: ELISA, CTLA-4 protein coated on plate, anti-human IgG Fc-peroxidase detection
Description: The binding activity of the anti-CTLA-4-IL-15Ra-sushi-IL-15 fusion protein to recombinant CTLA-4 protein which originated from different species, including human, cynomolgus monkey, rat, and mouse, was determined by Enzyme Linked Immunosorbent Assay (ELISA). Briefly, 96-well plates were coated overnight at 4° C. with […] of CTLA-4 protein diluted in PBS. Plates were blocked with 1% bovine serum albumin (BSA) for an hour at room temperature, and then incubated for additional 2 hours with the anti-CTLA-4-IL-15Ra-sushi-IL-15 fusion protein, Ipilimumab, or human IgG1 isotype control, at a 2-fold serial dilution starting from 1 μg/mL. Goat anti-human IgG (Fc specific)-peroxidase antibody (Sigma, 1:5000 dilution) was added to the plates and incubated for 1 hour at room temperature. After washing, the 3, 3′, 5, 5′-Tetramethylbenzidine (TMB) substrate was added to the wells to develop color and the absorbance at 450 nm was measured using the Multiskan plate reader (Thermo). Optical Density 450 (OD450) values were plotted against antibody concentration.

binding result: no binding
B1: Ipilimumab (antibody, V domains shown)
VH: QVQLVESGGGVVQPGRSLRLSCAASGFTFSSYTMHWVRQAPGKGLEWVTFISYDGNNKYYADSVKGRFTISRDNSKNTLYLQMNSLRAEDTAIYYCARTGWLGPFDYWGQGTLVTVSS
VL: not shown
notes: also called anti CTLA-4 antibody; CTLA-4 antibody
